Broadly, the Kd is the free concentration of one partner at which half of the binding sites on the other are occupied at equilibrium, for simple one-to-one binding. A high value points to weaker binding. What is called koff is the rate constant with which the complex falls apart. A word on the kon: it is the rate constant with which the complex forms.

The values that follow come from patent publication US20050106145A1 (SIGMA TAU INDUSTRIE FARMACEUTICHE RIUNITE S P A, published 2005).

For experiment [1], the target named is T1, human tenascin-C (human, UniProt P24821 23-2201, limits assumed).
T1 construct: Extracellular matrix protein; also called SK-MEL-28 purified tenascin
In words: BIAcore. (In general: Surface plasmon resonance follows binding to a sensor surface in real time, without labels.)

In experiment [2] the target is T1, human tenascin-C. In words: BIAcore. The source holds these as a separate data set.
In experiment [3] the target is T1, human tenascin-C. In words: ELISA, optimal antigen concentration (FIG. 6 panel A).
In a further experiment the target is T2, A1-4D fragment (human, UniProt P24821).
T2 construct: recombinant antigenic fragment; Lane B of the Western blots; also called A-D fragment
T2 sequence (antigen fragment, looked up): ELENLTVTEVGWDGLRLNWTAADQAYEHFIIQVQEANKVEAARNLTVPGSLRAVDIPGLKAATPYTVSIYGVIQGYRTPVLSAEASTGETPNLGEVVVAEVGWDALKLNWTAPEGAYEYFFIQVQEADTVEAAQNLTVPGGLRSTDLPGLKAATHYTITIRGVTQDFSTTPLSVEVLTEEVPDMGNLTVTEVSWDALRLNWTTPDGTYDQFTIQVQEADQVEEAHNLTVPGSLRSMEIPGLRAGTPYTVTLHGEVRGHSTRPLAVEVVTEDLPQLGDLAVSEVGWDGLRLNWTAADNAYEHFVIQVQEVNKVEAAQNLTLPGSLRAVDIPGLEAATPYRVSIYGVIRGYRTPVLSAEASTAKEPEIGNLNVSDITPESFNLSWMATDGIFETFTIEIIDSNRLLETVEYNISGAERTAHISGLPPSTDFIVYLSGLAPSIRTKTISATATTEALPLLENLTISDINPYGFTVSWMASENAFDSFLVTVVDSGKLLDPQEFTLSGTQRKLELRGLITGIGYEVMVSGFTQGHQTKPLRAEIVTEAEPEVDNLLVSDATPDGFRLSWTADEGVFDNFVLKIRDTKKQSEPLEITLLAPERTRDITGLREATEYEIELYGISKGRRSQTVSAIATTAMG
The experiment can be described thus: Western blot. (In general: Immunoblotting shows a protein as a band on a membrane.)

The target of experiment [4] is T1, human tenascin-C. In words: BIAcore, comparison with BC4.

T1 sequence (P24821 23-2201 limits assumed): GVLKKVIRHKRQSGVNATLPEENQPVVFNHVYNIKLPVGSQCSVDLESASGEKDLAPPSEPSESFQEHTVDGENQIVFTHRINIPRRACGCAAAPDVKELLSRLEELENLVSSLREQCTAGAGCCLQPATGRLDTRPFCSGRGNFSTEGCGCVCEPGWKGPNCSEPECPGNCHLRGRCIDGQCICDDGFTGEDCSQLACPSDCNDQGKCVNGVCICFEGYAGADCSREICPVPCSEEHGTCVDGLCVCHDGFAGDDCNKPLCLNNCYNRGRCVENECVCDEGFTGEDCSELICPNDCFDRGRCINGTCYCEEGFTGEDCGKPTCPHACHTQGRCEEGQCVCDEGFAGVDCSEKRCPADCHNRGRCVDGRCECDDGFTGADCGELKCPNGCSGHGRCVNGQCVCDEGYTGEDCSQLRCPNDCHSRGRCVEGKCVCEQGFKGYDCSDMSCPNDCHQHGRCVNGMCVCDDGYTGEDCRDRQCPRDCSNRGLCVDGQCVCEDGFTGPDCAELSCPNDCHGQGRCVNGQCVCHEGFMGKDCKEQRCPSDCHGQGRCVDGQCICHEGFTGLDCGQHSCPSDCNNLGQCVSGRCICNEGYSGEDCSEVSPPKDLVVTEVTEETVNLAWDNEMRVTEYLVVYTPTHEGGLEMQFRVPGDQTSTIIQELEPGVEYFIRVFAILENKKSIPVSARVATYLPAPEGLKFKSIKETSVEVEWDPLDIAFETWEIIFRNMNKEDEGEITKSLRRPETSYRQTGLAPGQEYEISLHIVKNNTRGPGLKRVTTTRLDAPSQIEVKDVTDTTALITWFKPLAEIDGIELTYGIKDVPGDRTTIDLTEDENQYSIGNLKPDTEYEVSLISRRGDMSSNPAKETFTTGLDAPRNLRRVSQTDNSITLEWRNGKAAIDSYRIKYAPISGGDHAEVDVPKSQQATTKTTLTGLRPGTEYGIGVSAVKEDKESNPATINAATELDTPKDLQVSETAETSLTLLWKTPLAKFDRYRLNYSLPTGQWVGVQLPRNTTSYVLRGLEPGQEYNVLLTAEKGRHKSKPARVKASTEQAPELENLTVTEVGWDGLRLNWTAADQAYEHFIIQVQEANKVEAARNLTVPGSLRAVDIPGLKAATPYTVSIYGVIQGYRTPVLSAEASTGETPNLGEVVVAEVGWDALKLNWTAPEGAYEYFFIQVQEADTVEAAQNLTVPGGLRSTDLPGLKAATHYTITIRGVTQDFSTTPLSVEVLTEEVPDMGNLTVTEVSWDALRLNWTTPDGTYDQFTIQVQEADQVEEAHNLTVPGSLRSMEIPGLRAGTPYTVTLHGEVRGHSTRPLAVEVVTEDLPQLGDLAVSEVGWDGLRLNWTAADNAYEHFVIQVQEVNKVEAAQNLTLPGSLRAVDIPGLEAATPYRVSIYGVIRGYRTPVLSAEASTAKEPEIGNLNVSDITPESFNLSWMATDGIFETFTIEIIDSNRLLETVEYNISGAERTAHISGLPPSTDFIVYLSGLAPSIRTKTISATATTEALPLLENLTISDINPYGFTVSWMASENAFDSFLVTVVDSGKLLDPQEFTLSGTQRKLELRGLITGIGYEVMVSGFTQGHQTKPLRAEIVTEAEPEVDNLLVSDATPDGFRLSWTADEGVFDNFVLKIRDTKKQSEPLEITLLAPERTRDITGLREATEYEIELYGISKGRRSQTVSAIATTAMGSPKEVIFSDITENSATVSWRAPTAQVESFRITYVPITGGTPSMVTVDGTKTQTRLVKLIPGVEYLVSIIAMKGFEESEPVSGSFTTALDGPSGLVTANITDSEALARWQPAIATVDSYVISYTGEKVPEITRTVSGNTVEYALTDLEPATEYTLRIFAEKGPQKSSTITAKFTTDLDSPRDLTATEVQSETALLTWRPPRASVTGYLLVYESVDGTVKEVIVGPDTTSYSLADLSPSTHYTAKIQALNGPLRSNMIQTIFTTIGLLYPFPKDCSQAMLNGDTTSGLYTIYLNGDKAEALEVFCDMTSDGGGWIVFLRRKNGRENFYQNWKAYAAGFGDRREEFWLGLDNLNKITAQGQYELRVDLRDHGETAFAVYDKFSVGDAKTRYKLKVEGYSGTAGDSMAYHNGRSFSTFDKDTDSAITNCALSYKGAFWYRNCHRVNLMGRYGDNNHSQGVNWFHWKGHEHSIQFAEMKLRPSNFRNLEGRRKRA

B1: ST2146 anti-human tenascin monoclonal antibody (antibody, V domains shown)
VH: KVKLQQSGPELVKPGASVKVSCKASGYAFTSYNMYWVKQSHGKSLEWIGYIDPYNGVTSYNQKFKGKATLTVDKSSSTAYMHLNSLTSEDSAVYYCARGGGSIYYAMDYWGQGTTVTVSS
VL: DIVMTQAAPSVPVTPGESVSISCRSSKSLLHSNGNTYLYWFLQRPGQSPQLLIYRMSNLASGVPDRFSGSGSGTAFTLRISRVEAEDVGVYYCMQHLEYPLTFGAGTKLELKR
notes: Mouse immunoglobulin of IgG2b/k isotype from hybridoma cST2146; Heavy chain is heterogeneously O-glycosylated
With B1, in the experiment with human tenascin-C [1], binding was put at a Kd of 1.4 nM. In the experiment with human tenascin-C [2], this molecule returned a koff of 0.00041 s⁻¹ and a kon of 300000 M⁻¹ s⁻¹. In the experiment with human tenascin-C [3], the “fold less antibody to obtain 1.0 OD than BC4” value is about 100 fold and the “fold less antibody to obtain 1.0 OD than the fully reactive peak 3 of BC4” value was about 20 fold. Moreover, the binding result with A1-4D fragment is recorded as “no binding”. The “fold affinity against BC4” value with human tenascin-C [4] is about 3 fold.
